US20240016943

Legend:
BLI1-ZM4 [1] = target: BLI1-ZM4 (UniProt P61244); experiment: competition; settings: vs MAX
STR118 (B11-Z8) [2] = target: STR118 (B11-Z8) (UniProt P61244); experiment: competition; settings: vs MAX/MAX 30 nM; Table 15 gives 79 for B11-Z8; vs MYC/MAX 170 nM
B10-Z6 [3] = target: B10-Z6 (UniProt P61244); experiment: competition; settings: vs MAX
B12-Z6 [4] = system: T1, B12-Z6; experiment: competition; settings: vs MAX
T1 sequence 1: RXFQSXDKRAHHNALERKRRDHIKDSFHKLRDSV
T1 sequence 2: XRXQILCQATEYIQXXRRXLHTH

BMYCs-Z [5] = target: BMYCs-Z (UniProt P61244); experiment: competition; settings: MAX competition at 500 nM
BLI1-Z [6] = target: BLI1-Z (UniProt P61244); experiment: competition; settings: vs MAX; 50% at 500 nM in Table 16
BLI1-ZL1 [7] = target: T2, BLI1-ZL1 (UniProt P61244+P61244); experiment: competition; settings: vs MAX
BMAD-Z = BMAD-Z (UniProt P61244); experiment: competition; settings: MAX competition at 500 nM
STR116 (B11-Z6) [8] = target: STR116 (B11-Z6) (UniProt P61244); experiment: competition; settings: vs MAX/MAX 30 nM; Table 15 gives 65 for B11-Z6 (conflict); vs MYC/MAX 1.0 uM
B-ZM4 [9] = target: B-ZM4 (UniProt P61244); experiment: competition; settings: MAX competition at 500 nM
BMYC-Z = BMYC-Z (UniProt P61244); experiment: competition; settings: MAX competition at 500 nM
B11-ZM4 [10] = experiment: competition; settings: vs MAX
BLI2-Z [11] = experiment: competition; settings: MAX competition at 500 nM
B1-Z2 helical tetramer [12] = system: T3, B1-Z2 helical tetramer; experiment: competition; settings: helical tetramer vs MAX
T3 sequence 1: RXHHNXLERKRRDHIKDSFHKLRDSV
T3 sequence 2: XAQILCKATEYIQXMRRXN

B11-Z4 [13] = target: B11-Z4 (UniProt P61244); experiment: competition; settings: vs MAX
BLI1s-Z [14] = target: BLI1s-Z (UniProt P61244); experiment: competition; settings: MAX competition at 500 nM
BMADs-Z [15] = target: BMADs-Z (UniProt P61244); experiment: competition; settings: MAX competition at 500 nM
B11s-Z8 = B11s-Z8 (UniProt P61244); experiment: EMSA; settings: method inferred
BLI1-ZM5 = BLI1-ZM5 (UniProt P61244); experiment: EMSA
B8-Z4 = system: T4, B8-Z4; experiment: EMSA
T4 sequence 1: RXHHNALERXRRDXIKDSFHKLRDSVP
T4 sequence 2: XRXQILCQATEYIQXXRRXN

BLI1-ZM4 [16] = target: BLI1-ZM4 (UniProt P61244); experiment: EMSA
B-Z helical tetramer = B-Z helical tetramer (UniProt P61244+P61244); experiment: EMSA
B1-Z = system: T5, B1-Z; experiment: EMSA; settings: apparent; Table 14 gives 17
T5 sequence 1: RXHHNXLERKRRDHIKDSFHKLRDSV
T5 sequence 2: XRAQILCKATEYIQYXRRK

B-ZL1 = B-ZL1 (UniProt P61244+P61244); experiment: EMSA; settings: listed as B-ZLI1; Table 14 gives 19
[17] = target: B-Z (MAX-derived STR, cross-dimer) (UniProt P61244); experiment: EMSA; settings: 95% CI 13-19; also 16 in Tables 12, 14; 20 mM HEPES pH 8.0, 150 mM NaCl, 2 mM MgCl2
STR118 (B11-Z8) [18] = target: STR118 (B11-Z8) (UniProt P61244); experiment: EMSA; settings: 95% CI 3.0-4.0; B11-Z8 4.2 in Table 14
B2-Z2 = system: T6, B2-Z2; experiment: EMSA
T6 sequence 1: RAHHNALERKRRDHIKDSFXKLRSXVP
T6 sequence 2: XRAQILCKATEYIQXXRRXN

B7-Z = system: T7, B7-Z; experiment: EMSA; settings: apparent; Table 14 gives 173
T7 sequence 1: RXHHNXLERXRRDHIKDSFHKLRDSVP
T7 sequence 2: XRAQILCKATEYIQYXRRK

B6-Z4 = system: T8, B6-Z4; experiment: EMSA; settings: 95% CI 49-66
T8 sequence 1: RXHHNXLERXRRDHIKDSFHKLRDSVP
T8 sequence 2: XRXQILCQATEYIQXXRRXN

B10-Z6 [19] = target: B10-Z6 (UniProt P61244); experiment: EMSA
B5-Z4 = system: T9, B5-Z4; experiment: EMSA; settings: 95% CI 98-126; Table 14 gives 118
T9 sequence 1: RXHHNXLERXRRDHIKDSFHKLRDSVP
T9 sequence 2: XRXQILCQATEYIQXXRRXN

[20] = target: B (MAX basic helix alone) (UniProt P61244); experiment: EMSA; settings: basic helix alone
B1-Z2 = system: T10, B1-Z2; experiment: EMSA; settings: 95% CI 22-29
T10 sequence 1: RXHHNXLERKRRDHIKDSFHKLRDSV
T10 sequence 2: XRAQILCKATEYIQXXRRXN

B12-Z6 [21] = system: T1, B12-Z6; experiment: EMSA
BMYCs-Z [22] = target: BMYCs-Z (UniProt P61244); experiment: EMSA; settings: 25 nM sDBD; listed twice, second value 19% (possibly BMYC-Z)
BLI1-Z [23] = target: BLI1-Z (UniProt P61244); experiment: EMSA; settings: apparent; Table 14 gives 12
B11-Z7 = B11-Z7 (UniProt P61244); experiment: EMSA
B1-Z1 = system: T11, B1-Z1; experiment: EMSA
T11 sequence 1: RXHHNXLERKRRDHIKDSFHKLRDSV
T11 sequence 2: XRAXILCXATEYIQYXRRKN

B3-Z = system: T12, B3-Z; experiment: EMSA; settings: apparent; Table 14 gives 76
T12 sequence 1: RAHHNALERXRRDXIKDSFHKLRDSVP
T12 sequence 2: XRAQILCKATEYIQYXRRK

B1-Z4 = system: T13, B1-Z4; experiment: EMSA; settings: 95% CI 37-43
T13 sequence 1: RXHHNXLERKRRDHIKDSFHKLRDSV
T13 sequence 2: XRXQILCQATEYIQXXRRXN

B-ZM3 = B-ZM3 (UniProt P61244+P61244); experiment: EMSA; settings: 25 nM sDBD
B11-Z70 = B11-Z70 (UniProt P61244); experiment: EMSA; settings: method inferred
BLI1-ZL1 [24] = target: T2, BLI1-ZL1; experiment: EMSA; settings: 95% CI 14-35; Table 14 gives 19
B-Z2 = B-Z2 (UniProt P61244); experiment: EMSA; settings: apparent; Table 14 gives 22
B4-Z = system: T14, B4-Z; experiment: EMSA; settings: apparent; Table 14 gives 25 (conflict)
T14 sequence 1: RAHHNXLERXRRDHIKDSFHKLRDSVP
T14 sequence 2: XRAQILCKATEYIQYXRRK

B11-Z81 = B11-Z81 (UniProt P61244); experiment: EMSA; settings: method inferred
B11-Z80 (STR1180) = B11-Z80 (STR1180) (UniProt P61244); experiment: EMSA; settings: method inferred
B8-Z = system: T15, B8-Z; experiment: EMSA; settings: apparent; Table 14 gives 672 (conflict)
T15 sequence 1: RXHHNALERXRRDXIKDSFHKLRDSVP
T15 sequence 2: XRAQILCKATEYIQYXRRK

[25] = system: T16, B1 (stapled MAX basic helix alone); experiment: EMSA; settings: stapled basic helix alone
T16 sequence: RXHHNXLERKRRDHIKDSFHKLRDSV

B7-Z4 = system: T17, B7-Z4; experiment: EMSA
T17 sequence 1: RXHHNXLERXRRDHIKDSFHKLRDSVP
T17 sequence 2: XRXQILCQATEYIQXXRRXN

STR116 (B11-Z6) [26] = target: STR116 (B11-Z6) (UniProt P61244); experiment: EMSA; settings: 95% CI 13-16; B11-Z6 14 in Table 14
B-ZM4 [27] = target: B-ZM4 (UniProt P61244); experiment: EMSA
[28] = target: B-Z5 (C-terminally truncated zipper) (UniProt P61244); experiment: EMSA; settings: apparent; Table 14 gives 88
B11-Z10 = B11-Z10 (UniProt P61244); experiment: EMSA; settings: method inferred
B2-Z = system: T18, B2-Z; experiment: EMSA; settings: apparent; Table 14 gives 15
T18 sequence 1: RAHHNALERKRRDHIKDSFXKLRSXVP
T18 sequence 2: XRAQILCKATEYIQYXRRK

B2-Z4 = system: T19, B2-Z4; experiment: EMSA
T19 sequence 1: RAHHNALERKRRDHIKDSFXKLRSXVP
T19 sequence 2: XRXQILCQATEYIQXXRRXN

B-Z3 = B-Z3 (UniProt P61244); experiment: EMSA; settings: apparent; Table 14 gives 15
B11-ZM4 [29] = experiment: EMSA
BLI2-Z [30] = experiment: EMSA; settings: 500 nM sDBD
B1-Z2 helical tetramer [31] = system: T3, B1-Z2 helical tetramer; experiment: EMSA
B11-Z4 [32] = target: B11-Z4 (UniProt P61244); experiment: EMSA; settings: 95% CI 16-20; Table 14 gives 38
BLI1s-Z [33] = target: BLI1s-Z (UniProt P61244); experiment: EMSA; settings: 25 nM sDBD
B-Z4 = B-Z4 (UniProt P61244); experiment: EMSA; settings: apparent; Table 14 gives 14
BMADs-Z [34] = target: BMADs-Z (UniProt P61244); experiment: EMSA; settings: 25 nM sDBD; listed twice, second value 82% (possibly BMAD-Z)
BLI2-ZL1 = BLI2-ZL1 (UniProt P61244); experiment: EMSA; settings: 500 nM sDBD
B-Z1 = B-Z1 (UniProt P61244); experiment: EMSA; settings: apparent; Table 14 gives 45

Substance: E-box probe
- IC50 (BLI1-ZM4 [1]): 560 nM
- IC50 (STR118 (B11-Z8) [2]): 61 nM
- IC50 (B10-Z6 [3]): 326 nM
- IC50 (B12-Z6 [4]): 62 nM
- activity (BMYCs-Z [5]): 7%
- IC50 (BLI1-Z [6]): 905 nM
- IC50 (BLI1-ZL1 [7]): 935 nM
- activity (BMAD-Z): 66%
- IC50 (STR116 (B11-Z6) [8]): 400 nM
- activity (B-ZM4 [9]): 41%
- activity (BMYC-Z): 9%
- IC50 (B11-ZM4 [10]): 560 nM
- activity (BLI2-Z [11]): 16%
- IC50 (B1-Z2 helical tetramer [12]): 1100 nM
- IC50 (B11-Z4 [13]): 496 nM
- activity (BLI1s-Z [14]): 22%
- activity (BMADs-Z [15]): 24%
- Kd (B11s-Z8): 6.5 nM
- Kd (BLI1-ZM5): 2.8 nM
- Kd (B8-Z4): 164 nM
- Kd (BLI1-ZM4 [16]): 10 nM
- Kd (B-Z helical tetramer): 2 nM
- Kd (B1-Z): 18 nM
- Kd (B-ZL1): 20 nM
- Kd [17]: 16 nM
- Kd (STR118 (B11-Z8) [18]): 3.5 nM
- Kd (B2-Z2): 18 nM
- Kd (B7-Z): 169 nM
- Kd (B6-Z4): 57 nM
- Kd (B10-Z6 [19]): 16 nM
- Kd (B5-Z4): 111 nM
- Kd [20]: > 2000 nM
- Kd (B1-Z2): 26 nM
- Kd (B12-Z6 [21]): 8 nM
- binding signal (BMYCs-Z [22]): 27 % bound
- Kd (BLI1-Z [23]): 8.3 nM
- Kd (B11-Z7): 22 nM
- Kd (B1-Z1): 49 nM
- Kd (B3-Z): 77 nM
- Kd (B1-Z4): 40 nM
- binding signal (B-ZM3): 53 % bound
- Kd (B11-Z70): 11 nM
- Kd (BLI1-ZL1 [24]): 25 nM
- Kd (B-Z2): 22 nM
- Kd (B4-Z): 239 nM
- Kd (B11-Z81): > 100 nM
- Kd (B11-Z80 (STR1180)): 2.7 nM
- Kd (B8-Z): 66 nM
- Kd [25]: > 2000 nM
- Kd (B7-Z4): 234 nM
- Kd (STR116 (B11-Z6) [26]): 14 nM
- Kd (B-ZM4 [27]): 8 nM
- Kd [28]: 98 nM
- Kd (B11-Z10): 4.8 nM
- Kd (B2-Z): 19 nM
- Kd (B2-Z4): 15 nM
- Kd (B-Z3): 18 nM
- Kd (B11-ZM4 [29]): 21 nM
- binding signal (BLI2-Z [30]): 72 % bound
- Kd (B1-Z2 helical tetramer [31]): 1.8 nM
- Kd (B11-Z4 [32]): 18 nM
- binding signal (BLI1s-Z [33]): 50 % bound
- Kd (B-Z4): 20 nM
- binding signal (BMADs-Z [34]): 63 % bound
- binding signal (BLI2-ZL1): 54 % bound
- Kd (B-Z1): 58 nM
